# Source: patent US20040175720A1 (NEW YORK UNIVERSITY, published 2004)
# B1: B42-NIF-1 (full-length), B42 activation domain fusion expressed from pJG4-5 in yeast (other, not shown: large carriers)
# chain: MEENEVESSSDAAPGPGRPEEPSESGLGVGTSEAVSADSSDAAAAPGQAEADDSGVGQSSDRGSRSQEEVSESSSSADPLPNSYLPDSSSVSHGPVAGVTGGPPALVHSSALPDPNMLVSDCTASSSDLGSAIDKIIESTIGPDLIQNCITVTSAEDGGAETTRYLILQGPDDGAPMTSPMSSSTLAHSLAAIEALADGPTSTSTCLEAQGGPSSPVQLPPASGAEEPDLQSLEAMMEVVVVQQFKCKMCQYRSSTKATLLRHMRERHFRPVAAAAAAAGKKGRLRKWSTSTKSQEEEGPEEEDDDDIVDAGAIDDLEEDSDYNPAEDEPRGRQLRLQRPTPSTPRPRRRPGRPRKLPRLEISDLPDGVEGEPLVSSQSGQSPPEPQDPEAPSSSGPGHLVAMGKVSRTPVEAGVSQSDAENAAPSCPDEHDTLPRRRGRPSRRFLGKKYRKYYYKSPKPLLRPFLCRICGSRFLSHEDLRFHVNSHEAGDPQLFKCLQCSYRSRRWSSLKEHMFNHVGSKPYKCDECSYTSVYRKDVIRHAAVHSRDRKKRPDPTPKLSSFPCPVCGRVYPMQKRLTQHMKTHSTEKPHMCDKCGKSFKKRYTFKMHLLTHIQAVANRRFKCEFCEFVCEDKKALLNHQLSHVSDKPFKCSFCPYRTFREDFLLSHVAVKHTGAKPFACEYCHFSTRHKKNLRLHVRCRHASSFEEWGRRHPEEPPSRRRPFFSLQQIEELKQQHSAAPGPPPSSPGPPEIPPEATTFQSSEAPSLLCSDTLGGATIIYQQGAEESTAMATQTALDLLLNMSAQRELGGTALQVAVVKSEDVEAGLASPGGQPSPEGATPQVVTLHVAEPGGGAAAESQLGPPDLPQITLAPGPFGGTGYSVITAPPMEEGTSAPGTPYSEEPAGEAAQAVVVSDTLKEAGTHYIMATDGTQLHHIELTADGSISFPSPDALASGAKWPLLQCGGLPRDGPEPPSPAKTHCVGDSQSSASSPPATSKALGLAVPPSPPSAATAASKKFSCKICAEAFPGRAEMESHKRAHAGPGAFKCPDCPFSARQWPEVRAHMAQHSSLRPHQCSQCSFASKNKKDLRRHMLTHTKEKPFACHLCGQRFNRNGHLKFHIQRLHSPDGRKSGTPTARAPTQTPTQTIILNSDDETLATLHTALQSSHGVLGPERLQQALSQEHIIVAQEQTVTNQEEAAYIQEITTADGQTVQHLVTSDNQVQYIISQDGVQHLLPQEYVVVPEGHHIQVQEGQITHIQYEQGAPFLQESQIQYVPVSPGQQLVTQAQLEAAAHSAVTAVADAAMAQAQGLFGTDETVPEHIQQLQHQGIEYDVITLADD
# notes: also called NIF-1 expressed as a B42-fusion
# Experiments:
# [1] = molecular target: B1; test: yeast two-hybrid, B42-NIF-1 (full-length) against LexA full-length cTRα
# Description: To examine for this possibility, the interaction of B42-NIF-1 (full-length), conditionally expressed from pJG4-5, was studied with LexA fusions of nuclear receptor LBDs (cTRα, ERa, RXRα, GR, RARα, and PPARα) in yeast, as shown in FIG. 7. In addition, a LexA-fusion of full-length cTRα was also tested against B42-NIF-1 (full-length) and gave similar results as with the cTRα LBD. […] To document that the LexA-LBD fusions were expressed and responded to ligand in yeast, similar studies were carried out with B42-NRC.
# [2] = molecular target: T1, LexA-NRC-b (LexA DBD fused to NRC amino acids 849-2063), bait of the two-hybrid screen (UniProt P0A7C2 1-202; Q14686 849-2063); test: yeast two-hybrid, LexA-NRC fusions against B42-NIF-1 constructs (FIG. 6A)
# T1 construct: domain: LexA DBD;range 849-2063
# Description: Cell. Biol. 20:5048-5063 (2000), which is hereby incorporated by reference in its entirety). The yeast strain EGY48 harboring the LacZ reporter pSH1 8-34 (Gyuris et al., “Cdi1, A Human G1 and S Phase Protein Phosphatase that Associates with Cdk2,” Cell 75:791-803 (1993), which is hereby incorporated by reference in its entirety), and pEG202ΔPL-NRC-b was transformed with the GH4C1 pJG4-5 cDNA library. Transformants were directly screened on X-gal SD-galactose-raffinose plates lacking trp, ura, his, and leu. Putative positive clones were further purified on trp⁻, ura⁻, his⁻, and leu⁻ SD-galactose-raffinose plates. The purified clones were plated on SD-dextrose/trp⁻, ura^{-,} his⁻ plates to repress the expression of cDNAs from pJG4-5. Galactose-inducible interactions were verified upon replica plating each clone on trp⁻, ura⁻, his⁻, leu⁻ X-gal SD-galactose-raffinose and trp⁻, ura⁻, his⁻ X-gal SD-dextrose plates. […] The putative cDNAs from positive clones were further verified against several different baits. The positive interactors were then sequenced and subjected to restriction digestion, size determination, and further analysis.
# Various regions of NRC were expressed as LexA fusions in yeast (designated as rows “a-g” in FIG. 6A) and their interaction compared with full-length NIF-1, NIF-2, and various deletions of NIF-1 conditionally expressed from pJG4-5. […]
Binder,binding result [1],binding result [2]
"LexA-fusion of full-length cTRα (receptor, UniProt P0A7C2 1-202, looked up, domain: LexA DBD;mature) MKALTARQQEVFDLIRDHISQTGMPPTRAEIAQRLGFRSPNAAEEHLKALARKGVIEIVSGASRGIRLLQEEEEGLPLVGRVAAGEPLLAQQHIEGHYQVDPSLFKPNADFLLRVSGMSMKDIGIMDGDLLAVHKTQDVRNGQVVVARIDDEVTVKRLKKQGNKVELLPENSEFKPIVVDLRQQSFTIEGLAVGVIRNGDWLMEQKPSTLDPLSEPEDTRWLDGKRKRKSSQCLVKSSMSGYIPSYLDKDEQCVVCGDKATGYHYRCITCEGCKGFFRRTIQKNLHPTYSCKYDGCCVIDKITRNQCQLCRFKKCISVGMAMDLVLDDSKRVAKRKLIEENRERRRKEEMIKSLQHRPSPSAEEWELIHVVTEAHRSTNAQGSHWKQKRKFLPEDIGQSPMASMPDGDKVDLEAFSEFTKIITPAITRVVDFAKKLPMFSELPCEDQIILLKGCCMEIMSLRAAVRYDPESETLTLSGEMAVKREQLKNGGLGVVSDAIFDLGKSLSAFNLDDTEVALLQAVLLMSSDRTGLICVDKIEKCQETYLLAFEHYINYRKHNIPHFWPKLLMKVTDLRMIGACHASRFLHMKVECPTELFPPLFLEVFEDQEV",no binding,–
B1,–,binds
